What was measured:
[1] = molecular target: T1, human CD16 receptor (FcgammaRIIIa) (human, UniProt P08637 17-254); assay: flow cytometry on NK cells; competition with 3G8-PE; antibody at 50 µg/ml; reference Rituxan®
T1 construct: whole, on cells; also called Fcgamma receptor RIIIa; FcγRIIIA
Experimental: The binding to the CD16 receptor is evaluated by a murine anti-CD16 antibody (3G8) competition test.
The effector cells (NK cells) are purified by the negative depletion kit (NK Cell Isolation Kit, Myltenyi, Paris, France), starting with peripheral blood from healthy donors. Then, the NK cells are incubated with variable concentrations (0, 10 and 50 μg/ml) of antibodies to be evaluated and the anti-CD16 antibody (3G8) coupled to a fluorochrome (3G8-PE) at a fixed concentration.
After washing, the binding of the 3G8-PE to the CD16 receptor of the NK cells is evaluated by flow cytometry.

[2] = molecular target: T2, human LDL (Low Density Lipoprotein) receptor (human, UniProt P01130 22-860); assay: binding to melanoma cell lines; method not described
T2 construct: whole, on cells; no recombinant LDL-R was tested; also called LDL-R; human LDL-R
T2 sequence (P01130 22-860): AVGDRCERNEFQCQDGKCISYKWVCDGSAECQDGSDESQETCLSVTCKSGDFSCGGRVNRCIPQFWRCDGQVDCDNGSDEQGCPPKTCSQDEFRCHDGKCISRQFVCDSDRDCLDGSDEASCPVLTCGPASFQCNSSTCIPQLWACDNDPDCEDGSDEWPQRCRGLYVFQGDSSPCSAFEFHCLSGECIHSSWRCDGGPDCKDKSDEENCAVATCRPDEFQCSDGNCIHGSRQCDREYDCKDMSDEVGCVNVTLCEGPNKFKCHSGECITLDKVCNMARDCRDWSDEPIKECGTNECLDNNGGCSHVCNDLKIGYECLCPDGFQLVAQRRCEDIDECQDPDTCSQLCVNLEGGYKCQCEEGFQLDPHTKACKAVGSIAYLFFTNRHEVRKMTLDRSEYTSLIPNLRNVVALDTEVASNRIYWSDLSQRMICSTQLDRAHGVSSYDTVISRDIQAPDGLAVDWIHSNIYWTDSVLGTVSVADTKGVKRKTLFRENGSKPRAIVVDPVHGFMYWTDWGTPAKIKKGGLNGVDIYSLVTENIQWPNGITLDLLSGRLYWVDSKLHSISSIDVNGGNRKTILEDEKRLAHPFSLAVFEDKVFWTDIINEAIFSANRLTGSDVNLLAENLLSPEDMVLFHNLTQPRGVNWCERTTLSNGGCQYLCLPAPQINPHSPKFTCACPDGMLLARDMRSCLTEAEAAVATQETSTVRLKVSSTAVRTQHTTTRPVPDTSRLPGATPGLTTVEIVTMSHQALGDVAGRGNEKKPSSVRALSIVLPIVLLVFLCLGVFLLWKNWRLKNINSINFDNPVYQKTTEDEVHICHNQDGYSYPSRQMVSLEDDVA

[3] = molecular target: T1, human CD16 receptor (FcgammaRIIIa); assay: cell-based or functional assay
[4] = molecular target: T1, human CD16 receptor (FcgammaRIIIa); assay: cell-based or functional assay; remark: listed apart in the source

T1 sequence (P08637 17-254): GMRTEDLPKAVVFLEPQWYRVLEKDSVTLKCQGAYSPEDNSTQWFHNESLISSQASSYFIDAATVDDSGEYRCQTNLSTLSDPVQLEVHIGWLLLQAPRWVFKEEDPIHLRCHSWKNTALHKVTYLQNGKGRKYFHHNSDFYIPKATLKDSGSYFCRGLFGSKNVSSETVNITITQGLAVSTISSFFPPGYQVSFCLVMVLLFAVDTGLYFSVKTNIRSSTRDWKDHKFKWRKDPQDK

B1: anti-LDL-R chimeric antibody EMAB604 (antibody, human IgG1, kappa)
heavy: not shown
light: DVLMTQTPLSLPVSLGDQASISCRSSQSILHSSGIAYLEWYLQKPGQSPKLLIYKVSNRFSGVPDRFSGSGSGTDFTLKISRVEAEDLGVYYCFQGSHVPWTFGGGTKLEIKRTVAAPSVFIFPPSDEQLKSGTASVVCLLNNFYPREAKVQWKVDNALQSGNSQESVTEQDSKDSTYSLSSTLTLSKADYEKHKVYACEVTHQGLSSPVTKSFNRGEC
notes: The cloned V fragments contain the natural signal peptide of C7; also called anti-LDL-R (EMAB604); chimeric antibody C7
[1]
  fold binding against Rituxan®: ~3 fold
[2]
  binding result: binds
[3]
  ADCC EC50, GUY 17.2 target cells, NK effector cells: 0.45 µg/mL
[4]
  ADCC EC50, HT-144 target cells, NK effector cells: 0.45 µg/mL
